Measured values published in publication PMC6375223.

Molecular target: SKP2 (UniProt Q13309)
Assay: co-immunoprecipitation from transfected 293T cells
Conditions: reference: wild-type PDCD4; sites S67

In the case of PDCD4 (from UniProt Q53EL6) PDCD4 S67A, the “binding against the reference” value is reported as “lost”.
